Consider one molecule from patent US20160185865A1.

This test addresses human CC chemokine receptor 4 (CCR4) (human) (UniProt P51679). In words: binding curve of FIG. 20B; cells not given.

Sequence of human CC chemokine receptor 4 (CCR4) (human) (P51679 whole entry): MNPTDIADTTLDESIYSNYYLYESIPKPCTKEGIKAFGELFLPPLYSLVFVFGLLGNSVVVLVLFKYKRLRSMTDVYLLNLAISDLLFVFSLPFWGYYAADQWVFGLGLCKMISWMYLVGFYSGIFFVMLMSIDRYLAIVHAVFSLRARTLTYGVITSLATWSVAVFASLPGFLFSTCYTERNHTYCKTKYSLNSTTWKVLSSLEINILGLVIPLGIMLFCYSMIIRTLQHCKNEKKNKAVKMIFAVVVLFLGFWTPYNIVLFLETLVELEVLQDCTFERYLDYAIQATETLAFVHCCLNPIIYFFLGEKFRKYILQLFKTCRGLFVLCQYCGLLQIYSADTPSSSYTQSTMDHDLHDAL

B1: KM2760 (anti-CCR4 chimeric antibody) (antibody, from another filing, V domains shown)
VH: EVQLVESGGDLMKPGGSLKISCAASGFIFSNYGMSWVRQTPDMRLEWVATISSASTYSYYPDSVKGRFTISRDNAENSLYLQMNSLRSEDTGIYYCGRHSDGNFAFGYWGRGTLVTVSA
VL: DVLMTQTPLSLPVSLGDQASISCRSSRNIVHINGDTYLEWYLQRPGQSPKLLIYKVSNRFSGVPDRFSGSGSGTDFTLKISRVEAEDLGVYYCFQGSLLPWTFGGGTRLEIRR
The term EC50 denotes the concentration giving half of the maximal effect. Lower therefore signals greater potency. Molecule B1 showed an EC50 of 5.07 nM.
